Read-outs that look alike come from different tables or passages of the source.
What was measured:
Assay in all cases: cryo-EM structure
[1] = target: the molecule itself
[2] = target: E. coli RNA polymerase σ70 subunit (E. coli, UniProt P00579 1-613)
[3] = target: the molecule itself; remark: listed apart in the source

Sequence of E. coli RNA polymerase σ70 subunit (P00579 whole entry): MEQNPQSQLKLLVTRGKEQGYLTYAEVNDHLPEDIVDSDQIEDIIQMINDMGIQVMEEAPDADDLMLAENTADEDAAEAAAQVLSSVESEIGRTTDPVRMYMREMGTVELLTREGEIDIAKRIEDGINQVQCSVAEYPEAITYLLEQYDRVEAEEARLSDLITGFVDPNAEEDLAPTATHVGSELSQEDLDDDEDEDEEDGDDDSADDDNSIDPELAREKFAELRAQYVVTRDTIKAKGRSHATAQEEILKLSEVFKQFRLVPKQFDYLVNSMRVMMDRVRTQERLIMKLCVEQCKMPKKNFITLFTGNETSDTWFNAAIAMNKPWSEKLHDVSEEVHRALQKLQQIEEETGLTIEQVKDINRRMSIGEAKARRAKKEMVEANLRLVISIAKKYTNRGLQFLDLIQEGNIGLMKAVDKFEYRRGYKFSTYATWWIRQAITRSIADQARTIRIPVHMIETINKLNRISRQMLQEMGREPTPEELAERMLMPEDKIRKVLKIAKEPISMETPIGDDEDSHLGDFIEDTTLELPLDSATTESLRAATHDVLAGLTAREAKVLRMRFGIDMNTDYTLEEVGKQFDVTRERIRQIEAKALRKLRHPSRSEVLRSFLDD

| Binder | stoichiometry N [1] | binding result [2] | stoichiometry N [3] |
| --- | --- | --- | --- |
| phage Mu late gene transcription activator C (natural protein, bacteriophage Mu, UniProt P06022 1-140, looked up) MQHDLFEHDPAIRQLIGHIDNIPAPELESRWPRSVVDLIDVLENELKRQNVSNPRELARKQAVALSCFLGGRQFYIPCGDTILTALRDDLLYCQFNGRNMEELRRQYRLSQPQIYQIIARQRKLHTRRHQPDLFSPETPK | 4 | – | – |
| phage Mu middle operon regulator Mor (natural protein, bacteriophage Mu, UniProt P23848 1-129, looked up) MTEDLFGDLQDDTILAHLDNPAEDTSRFPALLAELNDLLRGELSRLGVDPAHSLEIVVAICKHLGGGQVYIPRGQALDSLIRDLRIWNDFNGRNVSELTTRYGVTFNTVYKAIRRMRRLKYRQYQPSLL | – | binds | 4 |

— paper doi:10.1101/2025.05.02.651988 (bioRxiv, 2025)
